This note sets out measurements from paper PMC5383425, “Differential CLE peptide perception by plant receptors implicated from structural and functional analyses of TDIF-TDR interactions” (PLoS ONE, 2017).

Square brackets hold non-standard residues; d marks the D form. Ends that are not written are not given here. Hyp = O=C(O)[C@@H]1C[C@@H](O)CN1

Assay in all cases: ITC; 0.5–1 mM peptide titrated into 10–40 μM ecdTDR; 25°C; 10 mM sodium citrate, 100 mM NaCl, pH 5.5; fitted to one set of binding sites; MicroCal Auto-iTC200
Settings in all cases: both partners purified

One test has as its target T1, ecdTDR Y188A mutant (Arabidopsis thaliana, UniProt Q9FII5 30-642, Y188A).
T1 construct: TDR/PXY of A. thaliana, extracellular domain, residues 30-642; source: High Five insect cells (baculovirus), secreted, purified as the wild type (Ni-NTA, size-exclusion chromatography)
T1 sequence (looked up): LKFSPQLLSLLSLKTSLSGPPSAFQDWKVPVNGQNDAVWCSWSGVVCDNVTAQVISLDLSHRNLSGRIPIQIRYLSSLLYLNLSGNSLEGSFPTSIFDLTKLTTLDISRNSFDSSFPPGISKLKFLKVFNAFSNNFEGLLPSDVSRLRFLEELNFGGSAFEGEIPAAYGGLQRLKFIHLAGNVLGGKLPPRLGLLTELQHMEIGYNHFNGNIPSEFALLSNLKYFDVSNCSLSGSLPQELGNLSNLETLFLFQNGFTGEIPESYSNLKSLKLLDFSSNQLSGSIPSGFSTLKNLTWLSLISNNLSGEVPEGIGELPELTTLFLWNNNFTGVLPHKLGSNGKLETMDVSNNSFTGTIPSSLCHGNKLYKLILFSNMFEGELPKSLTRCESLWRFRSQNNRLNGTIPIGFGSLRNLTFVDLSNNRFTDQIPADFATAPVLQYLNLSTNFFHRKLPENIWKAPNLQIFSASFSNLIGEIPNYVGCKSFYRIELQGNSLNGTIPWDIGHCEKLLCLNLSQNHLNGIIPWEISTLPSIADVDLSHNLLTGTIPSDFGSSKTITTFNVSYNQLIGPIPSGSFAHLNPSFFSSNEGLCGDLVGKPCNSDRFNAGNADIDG

Another test deals with T2, ecdTDR S305A mutant (Arabidopsis thaliana, UniProt Q9FII5 30-642, S305A).
T2 construct: TDR/PXY of A. thaliana, extracellular domain, residues 30-642; also called alanine substitution mutation of TDR-S305; source: High Five insect cells (baculovirus), secreted, purified as the wild type (Ni-NTA, size-exclusion chromatography)
T2 sequence (looked up): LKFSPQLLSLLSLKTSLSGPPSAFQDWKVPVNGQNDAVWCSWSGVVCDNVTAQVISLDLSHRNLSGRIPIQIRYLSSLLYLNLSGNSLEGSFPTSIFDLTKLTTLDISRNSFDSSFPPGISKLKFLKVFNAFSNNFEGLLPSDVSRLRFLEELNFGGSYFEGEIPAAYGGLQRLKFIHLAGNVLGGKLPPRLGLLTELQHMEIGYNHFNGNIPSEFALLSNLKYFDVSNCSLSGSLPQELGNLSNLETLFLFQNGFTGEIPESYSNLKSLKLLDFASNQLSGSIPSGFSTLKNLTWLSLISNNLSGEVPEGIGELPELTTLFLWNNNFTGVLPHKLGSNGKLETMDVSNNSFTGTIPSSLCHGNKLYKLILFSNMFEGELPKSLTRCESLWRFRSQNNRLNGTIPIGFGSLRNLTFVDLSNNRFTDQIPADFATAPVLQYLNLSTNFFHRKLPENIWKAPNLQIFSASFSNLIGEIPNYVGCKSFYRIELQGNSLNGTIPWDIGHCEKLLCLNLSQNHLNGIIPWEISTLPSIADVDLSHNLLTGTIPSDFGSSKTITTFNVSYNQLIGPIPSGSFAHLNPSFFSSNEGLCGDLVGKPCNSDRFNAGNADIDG

Test [1] deals with T3, TDR-R421A/R423A double mutant (ecdTDR) (Arabidopsis thaliana, UniProt Q9FII5 30-642, R421A | R423A).
T3 construct: TDR/PXY of A. thaliana, extracellular domain, residues 30-642; source: High Five insect cells (baculovirus), secreted, purified as the wild type (Ni-NTA, size-exclusion chromatography)
T3 sequence (looked up): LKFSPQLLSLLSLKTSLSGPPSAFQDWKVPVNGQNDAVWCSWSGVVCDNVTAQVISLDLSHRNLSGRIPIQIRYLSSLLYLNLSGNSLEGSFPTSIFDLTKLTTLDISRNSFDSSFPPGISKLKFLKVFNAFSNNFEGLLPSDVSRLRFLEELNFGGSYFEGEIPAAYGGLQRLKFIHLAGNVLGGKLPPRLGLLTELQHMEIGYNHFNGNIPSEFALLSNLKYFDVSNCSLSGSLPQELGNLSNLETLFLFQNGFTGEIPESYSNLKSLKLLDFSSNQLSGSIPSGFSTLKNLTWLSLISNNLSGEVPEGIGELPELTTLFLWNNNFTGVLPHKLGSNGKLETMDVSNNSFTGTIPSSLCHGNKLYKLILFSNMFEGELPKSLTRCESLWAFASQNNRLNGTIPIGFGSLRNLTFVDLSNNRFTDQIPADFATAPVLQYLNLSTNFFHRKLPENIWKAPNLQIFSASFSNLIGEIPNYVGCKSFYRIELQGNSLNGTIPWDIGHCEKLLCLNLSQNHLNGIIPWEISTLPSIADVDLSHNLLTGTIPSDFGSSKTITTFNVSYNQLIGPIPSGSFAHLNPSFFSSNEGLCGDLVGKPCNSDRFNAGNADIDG

B1: Tracheary Element Differentiation Inhibitory Factor (TDIF) peptide (peptide)
peptide: HEV[Hyp]SG[Hyp]NPISN
notes: TDIF, the 12-residue CLE peptide processed from CLE41 and CLE44 of A. thaliana; printed as HEV(Hyp)SG(Hyp)NPISN; numbers count on: the 12-residue peptide; CLE44 encodes the same peptide; also called wild type TDIF; wtTDIF; source: synthetic peptide (peptide 2.0)
For the molecule B1, in the test with ecdTDR Y188A mutant, the binding result is “binds”. The “fold lower binding than wild-type ecdTDR” value with ecdTDR S305A mutant worked out at 4.4 fold. The “fold lower affinity than wild-type ecdTDR” value in test [1] turned out to be 3 fold.
